# Reference: US20150212086A1
# Where no end group is shown, it is not given here.
# Biological target: full-length MDGI (mammary-derived growth inhibitor) expressed from the pcDNA3-9E10 plasmid as a c-Myc fusion protein (mouse) (UniProt P11404)
# Assay: phage binding to U2OS cells transiently transfected with MDGI, 2 h at 4 C, bound phage titrated
binder,measurement,value
"CGLSGLGVA (peptide, not shown: large carriers, also: displayed on T7 phage capsid protein) [CooP displaying phage (phage 36), peptide sequence …]",fold increase of phage binding compared to the original library,10 fold
